# Measured values from patent publication US20140286957A1 (Teva, published 2014).
# Like-named read-outs stand apart in the source and are kept apart here.
# B1: 401.11.158 (antibody, V domains shown)
# VH: QVQLVGSGGGLVKPGRSLRLSCAASGFTFDDYAMHWVRQAPGKGLEWVATIIWNSAIIGYADSVKGRFIVSRDNAKNSLYLQMNSLRAEDTALYYCAKDMCSSGGCPDGYFDSWGQGTLVTVSS
# VL: DIQMTQSPSSVSASVGDRVTITCRASQHISSWLAWYQQKPGKAPKLLIYAASSLQSGVPSRFSGSGSGTDFTLTISSLQPEDFATYYCQQANRFPLTFGGGTKLEIKR
# notes: IgG4 (S228P); biotinylated or Pacific Blue labelled in some assays
# B2: 402.8 (antibody, V domains shown)
# VH: QVQLQESGPGLVRPSETLSLTCAVYGGSFSGYYWSWIRQPPGKGLEWIGEINHSGSTNYNPSLKSRVTISVDTSKNQFSLKLSSVTAADTAVYYCARGEIYDFWNSYMDVWGKGTTVTVSS
# VL: QTVVTQEPSLTVSPGGTVTLTCASSSGAVSSGNFPNWFQQKPGQAPRALIFSASNKHSWTPARFSGSLLGGKAVLTLSGVQPEDEAEYYCLLYFGDTQLGVFGGGTKVTVLG
# notes: Human IgG4 (S228P); biotinylated or Pacific Blue labelled in some assays
# Tests used:
# Human CD1d/β2M [1] = target: T1, Human CD1d/β2M (human, UniProt P15813 20-301; P61769 21-119); experiment: SPR
# T1 construct: also called hCD1d; recombinant human CD1d
# Human CD1d on cells [2] = target: T2, Human CD1d on cells (human, UniProt P15813 20-335); experiment: cell-based or functional assay
# T2 sequence (looked up): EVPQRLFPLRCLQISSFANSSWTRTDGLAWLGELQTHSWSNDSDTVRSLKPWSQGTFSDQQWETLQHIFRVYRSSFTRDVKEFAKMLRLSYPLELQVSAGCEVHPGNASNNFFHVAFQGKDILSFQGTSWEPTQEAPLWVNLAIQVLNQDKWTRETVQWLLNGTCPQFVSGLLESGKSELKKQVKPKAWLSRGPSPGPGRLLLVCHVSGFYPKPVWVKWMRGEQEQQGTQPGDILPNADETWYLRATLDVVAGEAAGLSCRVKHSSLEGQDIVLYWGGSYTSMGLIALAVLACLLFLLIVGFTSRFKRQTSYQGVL
# Human CD1d on cells [3] = target: T2, Human CD1d on cells; experiment: cell-based or functional assay; remark: listed apart in the source
# Human CD1d on cells [4] = target: T2, Human CD1d on cells; experiment: cell-based or functional assay; remark: listed apart in the source
# Human CD1d on cells [5] = target: T2, Human CD1d on cells; experiment: cell-based or functional assay; remark: listed apart in the source
# Human CD1d on cells [6] = target: T2, Human CD1d on cells; experiment: cell-based or functional assay; remark: listed apart in the source
# Human CD1d on cells [7] = target: T2, Human CD1d on cells; experiment: cell-based or functional assay; remark: listed apart in the source
# Human CD1d on cells [8] = target: T2, Human CD1d on cells; experiment: cell-based or functional assay; remark: listed apart in the source
# Human CD1d/β2M [9] = target: T1, Human CD1d/β2M; experiment: direct ELISA, plate coated with 1 µg/mL CD1d construct, HRP anti-human IgG (H+L) detection
# Mouse CD1d [10] = target: T3, Mouse CD1d (mouse, UniProt P11609 22-305); experiment: as above
# T3 construct: Murine CD1d extracellular domain construct, HEK-293E; also called mCD1d; murine CD1d
# T3 sequence: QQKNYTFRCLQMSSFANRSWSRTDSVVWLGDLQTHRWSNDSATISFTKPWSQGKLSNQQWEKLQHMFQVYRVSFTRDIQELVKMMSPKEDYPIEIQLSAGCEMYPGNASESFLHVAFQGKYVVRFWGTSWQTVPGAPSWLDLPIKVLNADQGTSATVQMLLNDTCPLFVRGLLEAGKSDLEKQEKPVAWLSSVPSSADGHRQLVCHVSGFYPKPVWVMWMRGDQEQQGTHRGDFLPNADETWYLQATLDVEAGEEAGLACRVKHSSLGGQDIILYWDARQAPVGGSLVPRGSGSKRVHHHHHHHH
# mCD1dhu [11] = target: T4, mCD1dhu (mouse with human segments); experiment: as above
# T4 chain: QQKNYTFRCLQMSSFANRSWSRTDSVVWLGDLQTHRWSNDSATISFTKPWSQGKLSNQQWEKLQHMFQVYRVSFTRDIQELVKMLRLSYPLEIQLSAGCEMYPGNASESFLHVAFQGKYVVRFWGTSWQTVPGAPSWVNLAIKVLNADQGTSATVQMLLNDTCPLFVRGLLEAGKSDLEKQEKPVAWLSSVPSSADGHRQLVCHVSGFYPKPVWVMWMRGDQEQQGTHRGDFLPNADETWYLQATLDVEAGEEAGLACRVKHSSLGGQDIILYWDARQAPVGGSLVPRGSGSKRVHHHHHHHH
# Human CD1d on cells [12] = target: T2, Human CD1d on cells; experiment: cell-based or functional assay; remark: listed apart in the source
# Human CD1d on cells [13] = target: T2, Human CD1d on cells; experiment: cell-based or functional assay; remark: listed apart in the source
# Human CD1d on cells [14] = target: T2, Human CD1d on cells; experiment: cell-based or functional assay; remark: listed apart in the source
# Human CD1d on cells [15] = target: T2, Human CD1d on cells; experiment: cell-based or functional assay; remark: listed apart in the source
# Human CD1d/β2M [16] = target: T1, Human CD1d/β2M; experiment: SPR, Protein A purified IgG
# Human CD1d/β2M [17] = target: T1, Human CD1d/β2M; experiment: SPR, IgG captured, CD1d/β2M analyte
# Procedure: Purified antibodies were also subjected to full kinetic characterization using a BIACORE™ T100 biosensor (GE Healthcare). Approximately 10,000 RU of anti-human IgG (Invitrogen cat# H10500) was immobilized on a CM5 Series S Sensor chip, using standard amine coupling chemistry in flow cell (FC) 1 and FC2 (or alternatively FC3 and FC4) of the BIACORE™ T100 Biosensor. The running buffer used was HBS-EP-1-(GE Healthcare) and interactions measured at 25° C. Peak purified IgGs were diluted to 10 nM in running buffer, and captured on FC2 (or alternatively FC4) at a flow rate of 10 μL/min in order to capture 50-80 RU of IgG. […] The contact time for association was 120 sec and dissociation measured for 20 mins for the highest concentration and 240 sec for all other concentrations in the series. The sensorgram data from FC2 was subtracted from FC1 and a buffer only control.
# [18] = target: T5, CD1d tetramer loaded with α-GalCer (ProImmune) (UniProt P15813 20-301, limits assumed); experiment: flow cytometry, inhibition of CD1d tetramer (10 nM) binding to NKTCR on J.RT3-T3.5 cells
# T5 construct: Bought reagent; also called fluorochrome-conjugated CD1d tetramer
# T5 sequence (looked up): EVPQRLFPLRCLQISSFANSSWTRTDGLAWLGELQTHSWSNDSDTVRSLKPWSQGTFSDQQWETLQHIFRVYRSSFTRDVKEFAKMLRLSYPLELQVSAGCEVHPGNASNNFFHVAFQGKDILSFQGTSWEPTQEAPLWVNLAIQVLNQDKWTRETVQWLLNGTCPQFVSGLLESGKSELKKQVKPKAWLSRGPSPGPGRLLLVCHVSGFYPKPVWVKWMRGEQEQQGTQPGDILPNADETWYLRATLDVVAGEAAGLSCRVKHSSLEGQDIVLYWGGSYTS
# Procedure: To perform the assay, antibodies were prepared at decreasing concentrations from 10 μg/mL in 0.1% bovine serum albumin (BSA) in cold 1×PBS at pH 7.4. […] Wash steps were done in 0.1% BSA in 1×PBS. Data were acquired by flow cytometry and analyzed using flow cytometry analysis software (FlowJo® Treestar, Inc.).
# [19] = target: Cynomolgus macaque CD1d on cells (cynomolgus macaque); experiment: flow cytometry, biotinylated antibody and streptavidin-PE on cynomolgus PBMC, gated live cells
# Human CD1d/β2M [20] = target: T1, Human CD1d/β2M; experiment: direct ELISA, plate coated with 1 µg/mL CD1d construct, HRP anti-human IgG (H+L) detection; remark: listed apart in the source
# Mouse CD1d [21] = target: T3, Mouse CD1d; experiment: as above; remark: listed apart in the source
# mCD1dhu [22] = target: T4, mCD1dhu; experiment: as above
# hCD1dmu = target: T6, hCD1dmu (human with mouse segments); experiment: as above
# T6 chain: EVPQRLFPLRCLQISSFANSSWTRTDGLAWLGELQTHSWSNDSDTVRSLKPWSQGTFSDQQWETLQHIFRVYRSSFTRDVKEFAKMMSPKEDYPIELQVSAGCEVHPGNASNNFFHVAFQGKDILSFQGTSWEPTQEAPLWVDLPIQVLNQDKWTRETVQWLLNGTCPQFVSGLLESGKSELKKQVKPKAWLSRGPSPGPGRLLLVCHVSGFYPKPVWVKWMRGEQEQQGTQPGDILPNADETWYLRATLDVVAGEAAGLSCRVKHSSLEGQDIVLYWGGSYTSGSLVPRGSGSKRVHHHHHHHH
binder,measurement,setting,value
B1,Kd,Human CD1d/β2M [1],0.189 nM
same,"fold improvement against 401.11 (IFN-γ, moDC)",Human CD1d on cells [2],~4.8 fold
same,fold potency against antibody 42 (C24:1 βGluCer),Human CD1d on cells [2],≤ 216 fold
same,fold potency against antibody 51.1 (C24:1 βGluCer),Human CD1d on cells [2],≤ 175 fold
same,NKT IL-4 EC50 (moDC),Human CD1d on cells [3],0.58 ng/mL
same,NKT IL-13 EC50 (moDC),Human CD1d on cells [3],3.84 ng/mL
same,NKT IFN-γ EC50 (moDC),Human CD1d on cells [4],8.16 ng/mL
same,NKT IL-4 EC50 (moDC),Human CD1d on cells [4],2.19 ng/mL
same,NKT IL-5 EC50 (moDC),Human CD1d on cells [4],6.13 ng/mL
same,NKT IL-13 EC50 (moDC),Human CD1d on cells [4],9.82 ng/mL
same,NKT TNF EC50 (moDC),Human CD1d on cells [4],4.3 ng/mL
same,NKT IFN-γ EC50 (THP-1),Human CD1d on cells [5],6.4 ng/mL
same,NKT IL-4 EC50 (THP-1),Human CD1d on cells [5],2.66 ng/mL
same,NKT IL-5 EC50 (THP-1),Human CD1d on cells [5],4.5 ng/mL
same,NKT IL-13 EC50 (THP-1),Human CD1d on cells [5],7.78 ng/mL
same,NKT TNF EC50 (THP-1),Human CD1d on cells [5],4.14 ng/mL
same,NKT IFN-γ EC50 (moDC),Human CD1d on cells [6],2.8 ng/mL
same,NKT IL-4 EC50 (moDC),Human CD1d on cells [6],0.432 ng/mL
same,NKT IL-5 EC50 (moDC),Human CD1d on cells [6],0.704 ng/mL
same,NKT IL-13 EC50 (moDC),Human CD1d on cells [6],0.598 ng/mL
same,NKT IFN-γ EC50 (THP-1),Human CD1d on cells [7],2.6 ng/mL
same,NKT IFN-γ EC50 (moDC),Human CD1d on cells [7],3 ng/mL
same,NKT IL-4 EC50 (THP-1),Human CD1d on cells [7],2.2 ng/mL
same,NKT IL-4 EC50 (moDC),Human CD1d on cells [7],1.16 ng/mL
same,NKT IL-13 EC50 (THP-1),Human CD1d on cells [7],4.35 ng/mL
same,"IFN-γ EC50 (C24:1 βGluCer, moDC)",Human CD1d on cells [8],0.64 ng/mL
same,"IL-4 EC50 (C24:1 βGluCer, moDC)",Human CD1d on cells [8],0.682 ng/mL
same,"IL-5 EC50 (C24:1 βGluCer, moDC)",Human CD1d on cells [8],0.868 ng/mL
same,"IL-13 EC50 (C24:1 βGluCer, moDC)",Human CD1d on cells [8],1.44 ng/mL
same,"TNF-α EC50 (C24:1 βGluCer, moDC)",Human CD1d on cells [8],0.842 ng/mL
same,EC50 (read off the curve),Human CD1d/β2M [9],~8 ng/mL
same,binding result,Mouse CD1d [10],no binding
same,EC50 (read off the curve),mCD1dhu [11],~0.1 µg/mL
B2,"fold potency against 51.1, IL-2 release",Human CD1d on cells [2],~17 fold
same,fold potency against antibody 42 (C24:1 βGluCer),Human CD1d on cells [2],≤ 139 fold
same,fold potency against antibody 42 (THP-1 assay),Human CD1d on cells [2],≤ 180 fold
same,fold potency against antibody 42 (moDC assay),Human CD1d on cells [2],≤ 50 fold
same,"fold potency against antibody 42, IL-2 release",Human CD1d on cells [2],~25 fold
same,fold potency against antibody 51.1 (C24:1 βGluCer),Human CD1d on cells [2],≤ 112 fold
same,IL-2 release EC50 (U-937 + NKTCR cell line),Human CD1d on cells [12],4.5 ng/mL
same,IFN-γ EC50 (THP-1),Human CD1d on cells [13],2.4 ng/mL
same,IL-4 EC50 (THP-1),Human CD1d on cells [13],1.7 ng/mL
same,IL-5 EC50 (THP-1),Human CD1d on cells [13],1.2 ng/mL
same,IL-13 EC50 (THP-1),Human CD1d on cells [13],1.5 ng/mL
same,IFN-γ EC50 (primary CD14+ cells),Human CD1d on cells [14],28.6 ng/mL
same,IL-4 EC50 (primary CD14+ cells),Human CD1d on cells [14],4 ng/mL
same,IL-5 EC50 (primary CD14+ cells),Human CD1d on cells [14],6.9 ng/mL
same,IL-13 EC50 (primary CD14+ cells),Human CD1d on cells [14],39.9 ng/mL
same,NKT IFN-γ EC50 (moDC),Human CD1d on cells [15],0.105 ng/mL
same,NKT IL-13 EC50 (moDC),Human CD1d on cells [15],0.154 ng/mL
same,"IFN-γ EC50 (C24:1 βGluCer, moDC)",Human CD1d on cells [8],0.995 ng/mL
same,"IL-4 EC50 (C24:1 βGluCer, moDC)",Human CD1d on cells [8],0.636 ng/mL
same,"IL-5 EC50 (C24:1 βGluCer, moDC)",Human CD1d on cells [8],0.929 ng/mL
same,"IL-13 EC50 (C24:1 βGluCer, moDC)",Human CD1d on cells [8],2.94 ng/mL
same,"TNF-α EC50 (C24:1 βGluCer, moDC)",Human CD1d on cells [8],1.51 ng/mL
same,Kd,Human CD1d/β2M [16],0.145 nM
same,Kd,Human CD1d/β2M [17],0.304 nM
same,koff,Human CD1d/β2M [17],0.000161 s⁻¹
same,kon,Human CD1d/β2M [17],530000 M⁻¹ s⁻¹
same,EC50,[18],0.165 µg/mL
same,"percent CD1d-positive cells, Donor 1",[19],81.3%
same,"percent CD1d-positive cells, Donor 2",[19],64%
same,EC50 (read off the curve),Human CD1d/β2M [20],~6 ng/mL
same,binding result,Mouse CD1d [21],no binding (tested: 10 µg/mL)
same,EC50 (read off the curve),mCD1dhu [22],~5 ng/mL
same,binding result,hCD1dmu,no binding (tested: 10 µg/mL)
